According to patent US9371362B2, “Prostate specific antigen agents and methods of using same for prostate cancer imaging” (VisEn Medical, Inc., priority 2012, dated 2016):
Non-standard residues stand in square brackets, D forms with d. Y‑mPEG ~40 kDa = Y-mPEG amine, ~40 kDa, coupled at C-terminal carboxyl; Hyp = O=C(O)[C@@H]1C[C@@H](O)CN1; Chg = N[C@H](C(=O)O)C1CCCCC1

How the values were obtained:
complexed PSA = complexed PSA (Homo sapiens, UniProt P07288); assay: In vitro activation of agent by complexed (inactive) PSA, kinetic fluorescence reading; type: biochemical; conditions: 0.5 μM agent, optimized buffer pH 7.5
Chain of complexed PSA (P07288 25-261): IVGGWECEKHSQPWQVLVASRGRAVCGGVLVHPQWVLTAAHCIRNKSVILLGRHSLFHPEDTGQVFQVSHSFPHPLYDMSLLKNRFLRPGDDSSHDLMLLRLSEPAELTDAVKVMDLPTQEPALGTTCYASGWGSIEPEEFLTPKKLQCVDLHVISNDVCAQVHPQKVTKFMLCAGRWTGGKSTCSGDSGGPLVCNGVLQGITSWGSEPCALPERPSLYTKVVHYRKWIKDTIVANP
Chain of complexed PSA (P01011 24-423 partner): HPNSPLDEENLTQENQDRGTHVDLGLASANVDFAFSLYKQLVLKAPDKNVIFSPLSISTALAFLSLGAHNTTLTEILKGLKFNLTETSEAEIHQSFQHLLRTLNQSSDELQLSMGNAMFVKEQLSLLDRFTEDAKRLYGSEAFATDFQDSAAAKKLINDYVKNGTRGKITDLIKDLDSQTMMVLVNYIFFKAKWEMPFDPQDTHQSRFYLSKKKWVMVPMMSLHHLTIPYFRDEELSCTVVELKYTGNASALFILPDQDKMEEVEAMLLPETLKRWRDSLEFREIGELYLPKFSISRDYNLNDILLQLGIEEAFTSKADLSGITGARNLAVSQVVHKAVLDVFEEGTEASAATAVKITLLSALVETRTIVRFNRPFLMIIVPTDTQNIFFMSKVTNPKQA
Experimental: (§1) Data in FIG. 1 depict activation of the prostate specific antigen activatable agents (compound A10).
(§2) Kinetic fluorescence readings were performed in a Gemini fluorescence plate reader at different times after adding the enzyme.
(§3) In this experiment, fluorescence is only associated with the test agents (compound A10) in the prescence of active PSA described herein.

[1] = test system: LNCaP tumors (PSA+) and PC3 (PSA−) tumors; assay: In vivo specificity imaging, LNCaP (PSA+) versus PC3 (PSA−) tumors, FMT2500; conditions: male Nu/Nu mice, 2 nmoles intravenously, imaged 24 hours later
Experimental: FIG. 2B is a histogram comparing fluorescence between prostate cancer expressing (PSA positive) and control (PSA negative) mice injected with the prostate specific antigen activatable agent (compound A10) and imaged tomographically.
Imaging studies were performed in LNCaP tumors (PSA+) and PC3 (PSA−) tumors tumor-bearing male Nu/Nu mice. The mice were injected intravenously with 2 nmoles of compound A10 and imaged 24 hours later on the FMT2500 (PerkinElmer Inc., Waltham, Mass.). Tumor fluorescence from positive and control mice was quantified and plotted.

active PSA = active PSA (Homo sapiens, UniProt P07288); assay: In vitro activation (cleavage) of agent by enzymatically active PSA, kinetic fluorescence reading; type: biochemical; conditions: 0.5 μM agent, 0.1 μM activated enzyme, TCNB buffer pH 7.5
Chain of active PSA (P07288 25-261): as the sequence (P07288 25-261) above
Experimental: as §1, §2, §3

[2] = test system: human prostate PSA+ LNCaP tumor; assay: In vivo imaging of prostate cancer, FMT2500 reflectance and tomography, IVIS Spectrum; conditions: male Nu/Nu mice, 2 nmoles intravenously, imaged 6 hours later
Experimental: FIG. 2A depicts epi-fluorescent reflectance and tomographic images for sites of active PSA detected in prostate cancer expressing mice six hours post-injection using a prostate specific antigen activatable agent (compound A10).
As depicted in FIG. 2A, imaging studies were performed in human prostate PSA^+ LNCaP tumor-bearing male Nu/Nu mice. The mice were injected intravenously with 2 nmoles of test agent (compound A10) and were imaged 6 hours later on the FMT2500 (PerkinElmer Inc., Waltham, Mass.) (FMT 2D for epifluorescence, FMT 3D for tomography) in reflectance and tomographic modes, and on the IVIS Spectrum (PerkinElmer Inc., Waltham, Mass.).

A10 (Ac-K[Hyp]SS[Chg]QSSK-{Y‑mPEG ~40 kDa}; also: conjugated with NHS ester of fluorophore F8, sites not given here) [Compound A10]
activation (fluorescence) in the presence of complexed PSA (complexed PSA): not complexed PSA | specificity of tumor fluorescence for PSA positive over PSA negative tumors [1]: specificity the prostate specific antigen activatable agents have for tumors containing enzymatically active PSA over PSA negative tumors in vivo | activation (fluorescence) in the presence of active PSA (active PSA): activated in the presence of active PSA | detection of sites of enzymatically active PSA in vivo [2]: Sites of active PSA are detected in the same locations for both reflectance and tomographic imaging
